The target of experiment [1] is T1, human IL-22R expressed on cells (BW-hIL22R, Baf3-hIL22R/IL20Rb, transfected HEK, primary human skin cells) (human, UniProt Q8N6P7 16-574).
T1 sequence: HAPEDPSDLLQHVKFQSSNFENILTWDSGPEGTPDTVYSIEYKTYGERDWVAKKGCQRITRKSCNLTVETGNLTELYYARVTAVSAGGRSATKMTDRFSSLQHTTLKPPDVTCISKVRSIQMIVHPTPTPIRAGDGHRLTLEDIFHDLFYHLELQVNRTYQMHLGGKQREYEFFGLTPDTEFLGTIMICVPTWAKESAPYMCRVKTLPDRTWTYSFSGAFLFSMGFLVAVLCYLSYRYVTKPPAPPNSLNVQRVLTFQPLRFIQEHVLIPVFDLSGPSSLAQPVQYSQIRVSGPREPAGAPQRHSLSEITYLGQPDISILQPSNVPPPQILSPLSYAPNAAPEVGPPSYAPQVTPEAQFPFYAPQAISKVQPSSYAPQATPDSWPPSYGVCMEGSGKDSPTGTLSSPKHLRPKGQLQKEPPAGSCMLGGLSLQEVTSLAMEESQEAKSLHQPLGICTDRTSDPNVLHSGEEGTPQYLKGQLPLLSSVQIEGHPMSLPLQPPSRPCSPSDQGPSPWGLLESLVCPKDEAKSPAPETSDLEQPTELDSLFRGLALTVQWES
In words: cell-based or functional assay.

Experiment [2] addresses T2, recombinant mouse IL22R (monomeric, R&D Systems cat 4248-MR) (mouse, UniProt Q80XZ4 16-230).
T2 construct: extracellular domain; also called murine IL-22R; mIL22R
T2 sequence (looked up): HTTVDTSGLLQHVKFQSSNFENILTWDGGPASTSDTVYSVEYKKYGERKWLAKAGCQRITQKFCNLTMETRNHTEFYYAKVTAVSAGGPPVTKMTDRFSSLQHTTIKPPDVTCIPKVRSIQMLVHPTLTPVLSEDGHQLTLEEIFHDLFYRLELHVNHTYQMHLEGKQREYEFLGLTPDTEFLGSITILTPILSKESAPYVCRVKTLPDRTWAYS
In words: summary table of cross-reactivity, mAb, column m = mouse.

In experiment [3] the target is T1, human IL-22R expressed on cells …. In words: cell-based or functional assay. The source holds these as a separate data set.

B1: 218A7 mAb (antibody, V domains shown)
VH: QVQLVESGGGLVQPGGSLRLSCAASGFTFSSYDMSWVRQAPGKGLEWVSSIYNDGSNTAYSDSVKGRFTISRDNAKNTLYLQMNSLKSEDTAVYYCAKVGFSGTYYSESWGQGTQVTVSS
VL: LPVLTQPSAVSVSLGQTARITCQGGYYAHWYQQKPGQAPVLVIYGQNNRPSGIPERFSGSGAGNTATLTISGAQAEDEAEYYCQSGSSSANAVFGGGTKLTVL
notes: VH family 4; light chain shuffled variant of 157A2, not germlined
B1: the “IC50 blocking IL-22 (pM), BW hIL22R proliferation” value in experiment [1] came to 360 pM. In experiment [2], the binding result is given as “no binding”. In addition, in experiment [3], the “IC50 blocking IL-22 (nM), BWhIL22R cell line” value was found to be 0.28 nM and the “Relative potency to 280.346.TSY (IL-22, BWhIL22R cell line)” value turned out to be 2.5 fold.
